Numbering of substitutions follows the chain as printed. Each block holds one binder with its values, some of them ahead of it.
Columns and labels:
[1] = molecular target: T1, human CD28 (human, UniProt P10747 19-152); assay: affinity; method not given
T1 construct: also called Cluster of Differentiation 28; Tp44

[2] = molecular target: T2, STEAP1 (UniProt Q9UHE8 1-339, limits assumed); assay: flow cytometry, bivalent mAbs on C4-2B cells
T2 construct: whole, on cells; also called Six-Transmembrane Epithelial Antigen of the Prostate 1
Experimental: Optimized humanized STEAP-A variants were then engineered in order to improve their binding affinity to STEAP-1. In the first round, 82 variant VLs were engineered as L1.4-L1.85 and 151 variant VHs were engineered as H1.39-H1.189. Variants were produced as bivalent mAbs, the sequences for which are depicted in FIG. 30. The bivalent mAbs were then screened for binding to STEAP-1 on C4-2B cells. Cells were mixed with mAbs and incubated for 1 hour on ice, washed with PBS, stained with secondary antibody for 1 hour on ice, and washed again before analyzing binding utilizing flow cytometry.
In the second round, 34 variant VLs were engineered and designated as L1.86-L1.119 and 39 variant VHs were engineered and designated as H1.190-H1.228. Bivalent mAbs from the second round of affinity maturation were also screened for binding to STEAP-1 expressed on C4-2B cells. Flow cytometry analysis was used to determine relative maximum MFI values, AUC values, and approximate EC50 values for each test article, as summarized in FIG. 34. […] A final set of variable heavy domain substitutions were engineered and designated H1.229- H1.232. […] Sequences for each variant VH and VL are depicted in FIGS. 31 and 32, respectively.

[3] = molecular target: T3, CEACAM5 (UniProt P06731 35-685); assay: affinity at 25 C (Octet per FIG. 79 legend)
T3 construct: also called carcinoembryonic antigen-related cell adhesion molecule 5; CD66e
T3 sequence (looked up): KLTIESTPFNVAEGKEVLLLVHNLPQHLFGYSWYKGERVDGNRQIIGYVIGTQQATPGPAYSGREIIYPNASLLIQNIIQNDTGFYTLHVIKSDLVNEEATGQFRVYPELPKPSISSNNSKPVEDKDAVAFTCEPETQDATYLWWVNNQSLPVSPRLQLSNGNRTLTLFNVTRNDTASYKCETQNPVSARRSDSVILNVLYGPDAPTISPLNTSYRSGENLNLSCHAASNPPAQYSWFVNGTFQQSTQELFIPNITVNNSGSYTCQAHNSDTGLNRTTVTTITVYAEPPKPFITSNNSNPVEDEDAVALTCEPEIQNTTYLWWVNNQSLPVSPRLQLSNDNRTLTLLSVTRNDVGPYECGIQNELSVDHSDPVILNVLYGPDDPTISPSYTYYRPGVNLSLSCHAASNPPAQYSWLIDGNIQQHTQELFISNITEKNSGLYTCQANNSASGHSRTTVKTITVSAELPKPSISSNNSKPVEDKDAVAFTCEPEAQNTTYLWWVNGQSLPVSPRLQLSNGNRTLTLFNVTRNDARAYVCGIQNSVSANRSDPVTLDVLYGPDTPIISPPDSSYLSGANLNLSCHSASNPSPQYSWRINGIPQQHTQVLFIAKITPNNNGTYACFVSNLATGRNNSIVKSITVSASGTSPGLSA

[4] = molecular target: T1, human CD28; assay: CD28 affinity as quoted in the text; method not given
[5] = molecular target: T3, CEACAM5; assay: CEACAM5 affinity as quoted in the text; method not given
[6] = molecular target: T4, CEACAM8 (UniProt P31997 35-320); assay: binding affinity (Octet at 25 C per FIG. 80 legend)
T4 sequence (looked up): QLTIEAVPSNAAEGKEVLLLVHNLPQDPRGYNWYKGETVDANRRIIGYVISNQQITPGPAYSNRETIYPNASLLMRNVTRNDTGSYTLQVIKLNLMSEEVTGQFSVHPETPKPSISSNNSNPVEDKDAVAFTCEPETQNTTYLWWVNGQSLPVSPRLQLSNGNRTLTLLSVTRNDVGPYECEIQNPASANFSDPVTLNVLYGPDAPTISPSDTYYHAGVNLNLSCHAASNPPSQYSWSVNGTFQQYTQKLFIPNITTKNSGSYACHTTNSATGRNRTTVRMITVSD

[7] = molecular target: T3, CEACAM5; assay: as above
[8] = molecular target: T1, human CD28; assay: CD28 affinity of the scFv arm as quoted in the text; method not given

binding result [2]: binds
B3: XENP45835 (antibody, V domains shown)
VH: QVQVQESGPGLVKPSQTLSLTCTVSGYSITSDYAWNWIRQPPGKKLEWIGYISNSGSTSYNPSLKSRVTISRDTSKNQFSLKLSSVTAADTAVYYCARERNYDYDDYYYAMDYWGQGTLVTVSS
VL: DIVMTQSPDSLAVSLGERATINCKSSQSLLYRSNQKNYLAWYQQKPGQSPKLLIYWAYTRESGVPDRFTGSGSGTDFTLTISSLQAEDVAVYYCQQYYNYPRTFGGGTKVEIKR
notes: also called L1.56; H1 and L1.56; copies: 2 + 2

Kd [4]: 130 nM
B6: XENP44915 (bispecific antibody, human IgG1, kappa)
heavy: EVQLVESGGGLVQPGGSLRLSCAASGFTFTDYYMNWVRQAPGKGLEWVGFIGNKANAYTTEYSASVKGRFTISRDKSKSSLYLQMNSLKTEDTAVYYCTRDRGLRFYFDYWGQGTLVTVSSASTKGPSVFPLAPSSKSTSGGTAALGCLVKDYFPEPVTVSWNSGALTSGVHTFPAVLQSSGLYSLSSVVTVPSSSLGTQTYICNVNHKPSDTKVDKKVEPKSCDKTHTCPPCPAPPVAGPSVFLFPPKPKDTLMISRTPEVTCVVVDVKHEDPEVKFNWYVDGVEVHNAKTKPREEEYNSTYRVVSVLTVLHQDWLNGKEYKCKVSNKALPAPIEKTISKAKGQPREPQVYTLPPSREEMTKNQVSLTCDVSGFYPSDIAVEWESDGQPENNYKTTPPVLDSDGSFFLYSKLTVDKSRWEQGDVFSCSVLHEALHSHYTQKSLSLSPGK
scFv-Fc: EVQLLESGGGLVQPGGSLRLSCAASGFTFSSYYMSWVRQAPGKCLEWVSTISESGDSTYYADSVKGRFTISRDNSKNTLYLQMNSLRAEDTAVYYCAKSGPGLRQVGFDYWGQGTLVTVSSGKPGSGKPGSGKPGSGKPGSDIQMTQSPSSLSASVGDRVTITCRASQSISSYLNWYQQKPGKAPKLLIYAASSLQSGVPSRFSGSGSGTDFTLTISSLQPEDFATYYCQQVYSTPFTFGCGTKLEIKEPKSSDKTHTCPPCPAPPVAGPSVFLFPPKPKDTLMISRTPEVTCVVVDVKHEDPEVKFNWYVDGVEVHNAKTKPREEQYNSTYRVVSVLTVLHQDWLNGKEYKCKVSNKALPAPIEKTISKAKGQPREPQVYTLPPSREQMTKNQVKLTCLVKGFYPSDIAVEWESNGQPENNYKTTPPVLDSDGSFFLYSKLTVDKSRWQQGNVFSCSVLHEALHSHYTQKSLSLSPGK
light: EIVLTQSPATLSLSPGERATLSCRASSSVTYIHWYQQKPGQAPKSLIYATSNLASGIPARFSGSGSGTDFTLTISSLEPEDFAVYYCQHWSSKPPTFGGGTKVEIKRTVAAPSVFIFPPSDEQLKSGTASVVCLLNNFYPREAKVQWKVDNALQSGNSQESVTEQDSKDSTYSLSSTLTLSKADYEKHKVYACEVTHQGLSSPVTKSFNRGEC

Kd [5]: 57 nM
B8: XENP44746 (bispecific antibody)
chain 1: EVQLVESGGGLVQPGGSLRLSCATSGFTFTDYYMNWVRQAPGKALEWVGFIGNKANGYTTEYSASVKGRFTISRDKSKSSLYLQMNSLKTEDTAVYYCTRDRGLRFYFDYWGQGTLVTVSS
chain 2: EIVLTQSPATLSLSPGERATLSCRASSSVTYIHWYQQKPGQAPRLLIYATSNLASGIPARFSGSGSGTDFTLTISSLEPEDFAVYYCQHWSSKPPTFGGGTKVEIK
chain 3: not shown

Kd [5]: 5 nM
B9: XENP44745 (bispecific antibody)
chain 1: B8 chain 1
chain 2: B8 chain 2 with E1Q, I2T, A42S, L45S, I57V, F70Y
chain 3: not shown

Kd [6]: 3330 nM
Kd [7]: 13 nM
B10: CEA-A_H1.7_L2.15 (antibody, V domains shown)
VH: B8 chain 1 with T24A, A44G, G57A
VL: B8 chain 2 with R44K, L45S

Kd [3]: 5 to 8 nM
B11: CEA-A_H1L1 (antibody, V domains shown)
VH: B8 chain 1
VL: B8 chain 2 with E1Q, I2T, A42S, L45S, I57V, F70Y
notes: also called humanized H1L1

Kd [5]: ~0.7 nM
B13: XENP44338 (bispecific antibody)
heavy: EVKLVESGGGLVQPGGSLRLSCATSGFTFTDYYMNWVRQPPGKALEWLGFIGNKANGYTTEYSASVKGRFTISRDKSQSILYLQMNTLRAEDSATYYCTRDRGLRFYFDYWGQGTTLTVSSASTKGPSVFPLAPSSKSTSGGTAALGCLVKDYFPEPVTVSWNSGALTSGVHTFPAVLQSSGLYSLSSVVTVPSSSLGTQTYICNVNHKPSDTKVDKKVEPKSCDKTHTCPPCPAPPVAGPSVFLFPPKPKDTLMISRTPEVTCVVVDVKHEDPEVKFNWYVDGVEVHNAKTKPREEEYNSTYRVVSVLTVLHQDWLNGKEYKCKVSNKALPAPIEKTISKAKGQPREPQVYTLPPSREEMTKNQVSLTCDVSGFYPSDIAVEWESDGQPENNYKTTPPVLDSDGSFFLYSKLTVDKSRWEQGDVFSCSVMHEALHNHYTQKSLSLSPGK
scFv-Fc: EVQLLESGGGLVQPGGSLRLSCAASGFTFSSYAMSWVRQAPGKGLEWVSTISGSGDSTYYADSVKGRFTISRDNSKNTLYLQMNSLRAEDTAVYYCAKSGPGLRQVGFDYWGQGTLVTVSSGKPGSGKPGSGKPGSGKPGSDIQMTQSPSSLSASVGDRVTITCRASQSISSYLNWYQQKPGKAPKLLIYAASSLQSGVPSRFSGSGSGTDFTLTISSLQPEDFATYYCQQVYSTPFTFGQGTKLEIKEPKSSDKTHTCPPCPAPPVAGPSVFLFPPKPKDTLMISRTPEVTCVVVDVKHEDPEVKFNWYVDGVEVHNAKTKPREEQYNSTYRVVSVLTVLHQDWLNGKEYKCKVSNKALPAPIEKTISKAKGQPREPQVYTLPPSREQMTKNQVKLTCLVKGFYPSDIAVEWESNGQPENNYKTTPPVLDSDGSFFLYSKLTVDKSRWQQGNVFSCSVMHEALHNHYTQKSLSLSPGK
light: QTVLSQSPAILSASPGEKVTMTCRASSSVTYIHWYQQKPGSSPKSWIYATSNLASGVPARFSGSGSGTSYSLTISRVEAEDAATYYCQHWSSKPPTFGGGTKLEIKRTVAAPSVFIFPPSDEQLKSGTASVVCLLNNFYPREAKVQWKVDNALQSGNSQESVTEQDSKDSTYSLSSTLTLSKADYEKHKVYACEVTHQGLSSPVTKSFNRGEC

Kd [8]: 96 nM
B14: XENP44560 (bispecific antibody)
heavy: B13 heavy
scFv-Fc: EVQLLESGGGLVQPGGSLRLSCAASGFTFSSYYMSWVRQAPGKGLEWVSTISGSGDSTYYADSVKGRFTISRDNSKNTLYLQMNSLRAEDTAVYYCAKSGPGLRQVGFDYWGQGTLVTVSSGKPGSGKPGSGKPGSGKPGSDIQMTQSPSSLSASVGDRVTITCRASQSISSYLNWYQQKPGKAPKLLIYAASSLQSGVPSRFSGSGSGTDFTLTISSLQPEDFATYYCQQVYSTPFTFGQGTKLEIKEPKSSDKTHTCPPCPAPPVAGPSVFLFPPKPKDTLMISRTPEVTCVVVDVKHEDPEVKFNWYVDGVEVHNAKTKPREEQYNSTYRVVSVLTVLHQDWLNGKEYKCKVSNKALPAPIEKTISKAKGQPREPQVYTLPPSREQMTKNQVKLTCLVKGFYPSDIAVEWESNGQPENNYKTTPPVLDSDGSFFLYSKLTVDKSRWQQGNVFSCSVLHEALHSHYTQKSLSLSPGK
light: B13 light
notes: copies: 1 + 1 + 1

The remaining lines, values behind:

B1: 1A7_H1.14_L1 (antibody, V domains shown)
VH: EVQLLESGGGLVQPGGSLRLSCAASGFTFSSYYMSWVRQAPGKGLEWVSTISESGDSTYYADSVKGRFTISRDNSKNTLYLQMNSLRAEDTAVYYCAKSGPGLRQVGFDYWGQGTLVTVSS
VL: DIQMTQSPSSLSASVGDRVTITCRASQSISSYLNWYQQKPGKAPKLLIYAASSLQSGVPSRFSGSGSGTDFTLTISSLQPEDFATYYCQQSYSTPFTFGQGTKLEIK
notes: Anti-CD28 VH/VL pair; also called 1A7[CD28]_H1.14_L1
Kd [1]: ~200 nM

B2: XENP46500 (antibody, human IgG1, kappa, V domains shown)
VH: B3 VH with D105E, D106L
VL: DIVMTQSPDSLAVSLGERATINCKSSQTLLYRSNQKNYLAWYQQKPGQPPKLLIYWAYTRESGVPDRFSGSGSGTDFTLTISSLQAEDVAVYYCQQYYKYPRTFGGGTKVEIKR
notes: also called H1.21 and L1.115; copies: 2 + 2
binding result [2]: binds

B4: CEA-A_H0L0 (antibody, V domains shown)
VH: EVKLVESGGGLVQPGGSLRLSCATSGFTFTDYYMNWVRQPPGKALEWLGFIGNKANGYTTEYSASVKGRFTISRDKSQSILYLQMNTLRAEDSATYYCTRDRGLRFYFDYWGQGTTLTVSS
VL: QTVLSQSPAILSASPGEKVTMTCRASSSVTYIHWYQQKPGSSPKSWIYATSNLASGVPARFSGSGSGTSYSLTISRVEAEDAATYYCQHWSSKPPTFGGGTKLEIK
notes: also called parental CEA-A
Kd [3]: 0.7 to 2 nM

B5: XENP45915 (bispecific antibody)
heavy: B6 heavy
scFv-Fc: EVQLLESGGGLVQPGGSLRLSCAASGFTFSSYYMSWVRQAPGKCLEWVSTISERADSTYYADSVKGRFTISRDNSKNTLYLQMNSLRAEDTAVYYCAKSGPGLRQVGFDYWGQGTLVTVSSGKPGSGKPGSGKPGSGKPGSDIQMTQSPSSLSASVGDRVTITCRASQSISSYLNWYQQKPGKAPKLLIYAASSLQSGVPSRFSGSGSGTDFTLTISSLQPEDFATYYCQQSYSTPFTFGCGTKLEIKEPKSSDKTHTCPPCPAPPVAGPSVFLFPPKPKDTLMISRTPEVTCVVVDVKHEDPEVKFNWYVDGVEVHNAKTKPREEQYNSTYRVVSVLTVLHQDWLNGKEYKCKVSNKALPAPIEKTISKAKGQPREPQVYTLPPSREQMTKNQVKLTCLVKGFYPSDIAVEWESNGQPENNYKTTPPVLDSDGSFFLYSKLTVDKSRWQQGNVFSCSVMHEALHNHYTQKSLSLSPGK
light: B6 light
Kd [4]: 26 nM

B7: CEA-A_H1L2 (antibody, V domains shown)
VH: B8 chain 1
VL: B8 chain 2
notes: also called HIL2
Kd [3]: 57 to 69 nM

B12: XENP44332 (bispecific antibody)
heavy: B13 heavy
scFv-Fc: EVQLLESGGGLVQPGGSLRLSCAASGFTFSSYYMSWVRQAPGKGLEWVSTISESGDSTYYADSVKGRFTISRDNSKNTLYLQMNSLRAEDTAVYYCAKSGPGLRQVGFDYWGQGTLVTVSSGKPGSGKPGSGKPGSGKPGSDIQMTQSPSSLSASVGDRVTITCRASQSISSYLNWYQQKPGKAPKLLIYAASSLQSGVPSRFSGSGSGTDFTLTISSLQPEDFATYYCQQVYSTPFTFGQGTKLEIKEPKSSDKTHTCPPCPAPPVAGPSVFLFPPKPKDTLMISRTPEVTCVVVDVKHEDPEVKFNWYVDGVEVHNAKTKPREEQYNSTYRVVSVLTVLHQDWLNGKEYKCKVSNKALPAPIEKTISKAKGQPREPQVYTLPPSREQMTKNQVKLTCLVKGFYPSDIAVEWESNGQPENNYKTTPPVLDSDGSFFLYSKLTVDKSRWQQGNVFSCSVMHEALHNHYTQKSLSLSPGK
light: B13 light
Kd [8]: 37 nM

Source: US20250043001A1 (Xencor, published 2025)
